Three proteins from article PMC5995969, “Structural basis for the regulation of human 5,10-methylenetetrahydrofolate reductase by phosphorylation and S-adenosylmethionine inhibition” (Nature Communications, 2018) can be followed below.

This data set deals with the molecule itself. In words: native MS; protein desalted into 50 mM ammonium acetate pH 6.5, infused directly, positive ion ESI-QTOF; as purified or after CIP treatment.

As usually defined, the stoichiometry N is a count of units in the complex or per binding partner.

B1: HsMTHFR38–644 (domain or fragment)
chain: not shown
notes: Not phosphorylated; Native and SeMet-derivatized protein were crystallized; also called truncated HsMTHFR; crystallized construct
As for B1, the “stoichiometry N” value was 2.

B2: full-length recombinant human MTHFR (HsMTHFR1–656), as purified (phosphorylated) (enzyme)
chain: not shown
modifications: phosphorylated with partial occupancy, up to ten sites occupied simultaneously: Ser9, Ser10, Ser18, Ser20, Ser21, Ser23, Ser25, Ser26, Ser29, Ser30, Thr34, Tyr90, Thr94, Ser103, Ser394, Thr451
notes: human 5,10-methylenetetrahydrofolate reductase (MTHFR), 656 amino acids, residues 1–656, numbered according to NP_005948.3; also called 5,10-methylenetetrahydrofolate reductase; phosphorylated HsMTHFR_(1–656); source: Sf9 (baculovirus), purified (Ni-NTA, Superdex 200, tag cleaved by TEV protease, re-passaged over Ni-NTA); not shown: FLAG, C-terminal, cleaved; His10, C-terminal, cleaved
With B2, the “stoichiometry N” value stood at 2.

B3: CIP-treated HsMTHFR1–656 (dephosphorylated) (enzyme)
chain: not shown
notes: human 5,10-methylenetetrahydrofolate reductase (MTHFR), residues 1–656, numbered according to NP_005948.3; Same construct as m1 after removal of 9 or 10 phosphate groups by CIP; Some residues of the cleaved C-terminal tag may be left; also called HsMTHFR_(1–656) (CIP); dephosphorylated HsMTHFR_(1–656); not shown: FLAG, C-terminal, cleaved; His10, C-terminal, cleaved
Consider B3, for which the “stoichiometry N” value worked out at 2.
